Results as given in the supplement of paper PMC7877785.
± gives the uncertainty stated by the source.

Assay: self-splicing fitness, log relative to wild type (ln ratio); higher = more splicing; Tetrahymena group I intron in knt gene, E. coli kanamycin selection, DiMSum; sequences stand for … in CUCUCU…GGAGGGAAAAGUUAUCAGGCAUGCACCUGGUAGCUAGUCUUUAAACCAAUAGAUUGCAUCGGUUUAAAAGGCAAGACCGUCAAAUUGCGGGAAAGGGGUCAACAGCCGUUCAGUACCAAGUCUCAGGGGAAACUUUGAGAUGGCCUUGCAAAGGGUAUGGUAAUAAGCUGACGGACAUGGUCCUAACCACGCAGCCAAGUCCUAAGUCAACAGAUCUUCUGUUGAUAUGGAUGCAGUUCACAGACUAAAUGUCGGUCGGGGAAGAUGUAUUCUUCUCAUAAGAUAUAGUCGGACCUCUCCUUAAUGGGAGCUAGCGGAUGAAGUGAUGCAACACUGGAGCCGCUGGGAACUAAUUUGUAUGCGAAAGUAUAUUGAUUAGUUUUGGAGUACUCGUGGUCG
In short: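 Fitness was computed with DiMSum as the error-weighted combination of replicate fold changes, kanamycin versus none, each normalised to wild type. The library randomised all eight intron nucleotides of the P1ex region, with the intron placed in the knt kanamycin-resistance gene on pET-22b(+) in E. coli BL21(DE3). Six replicate transformations were grown overnight at 37°C or 30°C on LB agar with or without 25 μg/mL kanamycin, plus 100 μg/mL carbenicillin, 50 μM IPTG and 0.2% rhamnose. Pooled colonies were amplicon-sequenced on an Illumina HiSeq 2500.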

| Sequence | self-splicing fitness (ln) (30 °C) | self-splicing fitness (ln) (37 °C) |
| --- | --- | --- |
| UAGGAGCAAUAUUACGUAGG | -3.28 ± 0.2 | -1.15 ± 0.18 |
| UAGGAGCAAUAUUACGUCAA | – | -2.27 ± 0.46 |
| UAGGAGCAAUAUUACGUCGA | -3.16 ± 0.2 | -1.55 ± 0.21 |
| UAGGAGCAAUAUUACGUCUG | -0.473 ± 0.13 | 0.629 ± 0.15 |
| UAGGAGCAAUAUUACGUGAA | -1.66 ± 0.34 | -1.93 ± 0.34 |
| UAGGAGCAAUAUUACGUGAC | -3 ± 0.23 | – |
| UAGGAGCAAUAUUACGUGGC | – | -0.624 ± 0.36 |
| UAGGAGCAAUAUUACGUUGG | – | -1.27 ± 0.28 |
| UAGUAGCAAUAUUACGAAUG | -2.77 ± 0.16 | -0.412 ± 0.13 |
| UAGUAGCAAUAUUACGAGGU | -2.28 ± 0.36 | – |
| UAGUAGCAAUAUUACGAUCU | -1.22 ± 0.11 | -0.472 ± 0.13 |
| UAGUAGCAAUAUUACGCAUC | -2.64 ± 0.28 | – |
| UAGUAGCAAUAUUACGCGAC | – | -1.69 ± 0.29 |
| UAGUAGCAAUAUUACGCUCA | -0.29 ± 0.13 | 0.69 ± 0.15 |
| UAGUAGCAAUAUUACGGAUU | -4.06 ± 0.47 | -0.834 ± 0.18 |
| UAGUAGCAAUAUUACGGCCU | -0.563 ± 0.15 | -0.218 ± 0.24 |
| UAGUAGCAAUAUUACGGGUA | -1.99 ± 0.12 | -0.398 ± 0.097 |
| UAGUAGCAAUAUUACGGUAA | -2.68 ± 0.3 | -2.18 ± 0.29 |
| UAGUAGCAAUAUUACGGUGC | -3.13 ± 0.17 | -2.39 ± 0.19 |
| UAGUAGCAAUAUUACGGUGU | -3.57 ± 0.32 | -3.21 ± 0.4 |
| UAGUAGCAAUAUUACGUAAG | -4.17 ± 0.46 | -1.11 ± 0.23 |
| UAGUAGCAAUAUUACGUAGA | -3.53 ± 0.24 | -1.93 ± 0.17 |
| UAUAAGCAAUAUUACGACUG | 0.143 ± 0.076 | 0.22 ± 0.098 |
| UAUAAGCAAUAUUACGAGCG | -0.0858 ± 0.098 | -0.062 ± 0.1 |
| UAUAAGCAAUAUUACGAGGA | -2.44 ± 0.42 | – |
| UAUAAGCAAUAUUACGAUCC | – | -2.05 ± 0.37 |
| UAUAAGCAAUAUUACGAUGG | -1.62 ± 0.13 | -1.48 ± 0.2 |

| Sequence | self-splicing fitness (ln) (30 °C) | self-splicing fitness (ln) (37 °C) |
| --- | --- | --- |
| UAUAAGCAAUAUUACGCGAU | -3.6 ± 0.21 | -3.37 ± 0.22 |
| UAUAAGCAAUAUUACGGACU | -2.12 ± 0.11 | -0.796 ± 0.11 |
| UAUAAGCAAUAUUACGGAGA | -3.11 ± 0.36 | -2.33 ± 0.46 |
| UAUAAGCAAUAUUACGGCCG | 0.336 ± 0.23 | 0.0314 ± 0.26 |
| UAUAAGCAAUAUUACGGCUC | -1.1 ± 0.17 | -0.161 ± 0.2 |
| UAUAAGCAAUAUUACGGCUG | 0.381 ± 0.13 | 0.0603 ± 0.14 |
| UAUAAGCAAUAUUACGGUAC | -3.46 ± 0.3 | -2.23 ± 0.29 |
| UAUAAGCAAUAUUACGGUCG | -0.167 ± 0.097 | -0.128 ± 0.12 |
| UAUAAGCAAUAUUACGGUUC | -3.49 ± 0.37 | -1.05 ± 0.33 |
| UAUAAGCAAUAUUACGUAUA | -2.77 ± 0.21 | -0.986 ± 0.17 |
| UAUAAGCAAUAUUACGUUCU | -1.03 ± 0.14 | -1.41 ± 0.2 |
| UAUAAGCAAUAUUACGUUGC | -3.02 ± 0.3 | – |
| UAUCAGCAAUAUUACGAAGU | -2.82 ± 0.28 | -0.868 ± 0.29 |
| UAUCAGCAAUAUUACGAAUA | -0.934 ± 0.18 | -0.486 ± 0.11 |
| UAUCAGCAAUAUUACGACCA | -0.0276 ± 0.12 | 0.439 ± 0.16 |
| UAUCAGCAAUAUUACGACCC | -1.87 ± 0.15 | -1.71 ± 0.18 |
| UAUCAGCAAUAUUACGAUCU | -0.554 ± 0.1 | -0.0299 ± 0.098 |
| UAUCAGCAAUAUUACGCAAA | -0.36 ± 0.12 | -0.755 ± 0.11 |
| UAUCAGCAAUAUUACGCACC | -0.885 ± 0.22 | 0.3 ± 0.29 |
| UAUCAGCAAUAUUACGCAUA | -0.316 ± 0.11 | 0.0108 ± 0.11 |
| UAUCAGCAAUAUUACGCUAC | -4.2 ± 0.42 | -3.24 ± 0.26 |
| UAUCAGCAAUAUUACGCUCC | -1 ± 0.29 | -0.504 ± 0.31 |
| UAUCAGCAAUAUUACGCUUU | -1.48 ± 0.086 | -0.159 ± 0.098 |
| UAUCAGCAAUAUUACGGAAA | -0.825 ± 0.11 | -0.253 ± 0.12 |
| UAUCAGCAAUAUUACGGCAC | -2.52 ± 0.17 | -0.753 ± 0.14 |
| UAUCAGCAAUAUUACGGUAU | -3.73 ± 0.21 | -2.01 ± 0.18 |
| UAUCAGCAAUAUUACGUAGA | -0.562 ± 0.058 | -0.0988 ± 0.081 |

| Sequence | self-splicing fitness (ln) (30 °C) | self-splicing fitness (ln) (37 °C) |
| --- | --- | --- |
| UAUCAGCAAUAUUACGUUAA | -0.97 ± 0.093 | -0.0683 ± 0.11 |
| UAUCAGCAAUAUUACGUUAG | -1.22 ± 0.095 | -1.03 ± 0.094 |
| UAUGAGCAAUAUUACGACCG | -1.61 ± 0.4 | -1.53 ± 0.34 |
| UAUGAGCAAUAUUACGAGUG | -1.52 ± 0.095 | -0.43 ± 0.11 |
| UAUGAGCAAUAUUACGCAGA | -3.3 ± 0.29 | -2.6 ± 0.23 |
| UAUGAGCAAUAUUACGCCUG | -1.44 ± 0.14 | -1.57 ± 0.26 |
| UAUGAGCAAUAUUACGCUAC | -2.79 ± 0.2 | -2.25 ± 0.43 |
| UAUGAGCAAUAUUACGCUAU | -1.38 ± 0.31 | -1.3 ± 0.23 |
| UAUGAGCAAUAUUACGCUGA | -2.75 ± 0.33 | -1.13 ± 0.3 |
| UAUGAGCAAUAUUACGCUUG | -3.32 ± 0.4 | 0.0607 ± 0.25 |
| UAUGAGCAAUAUUACGGAAU | -3.65 ± 0.47 | -2.44 ± 0.38 |
| UAUGAGCAAUAUUACGGUGU | -3.54 ± 0.23 | -2.63 ± 0.2 |
| UAUGAGCAAUAUUACGUAAA | -3.46 ± 0.32 | -1.59 ± 0.19 |
| UAUGAGCAAUAUUACGUAAC | -2.86 ± 0.36 | – |
| UAUGAGCAAUAUUACGUAGA | -2.7 ± 0.18 | -2.46 ± 0.2 |
| UAUGAGCAAUAUUACGUAUU | – | -3.61 ± 0.35 |
| UAUGAGCAAUAUUACGUGAA | -2.98 ± 0.33 | -1.35 ± 0.17 |
| UAUGAGCAAUAUUACGUUAG | -2.63 ± 0.17 | -2.23 ± 0.22 |
| UAUGAGCAAUAUUACGUUAU | -3.87 ± 0.33 | -2.46 ± 0.19 |
| UAUUAGCAAUAUUACGAAGA | -1.81 ± 0.17 | -1.75 ± 0.26 |
| UAUUAGCAAUAUUACGAAGU | -2.67 ± 0.42 | -2.12 ± 0.4 |
| UAUUAGCAAUAUUACGACCC | -3.2 ± 0.38 | -0.71 ± 0.33 |
| UAUUAGCAAUAUUACGACGA | -0.31 ± 0.18 | -0.557 ± 0.23 |
| UAUUAGCAAUAUUACGAUGG | -1.24 ± 0.094 | -0.174 ± 0.11 |
| UAUUAGCAAUAUUACGCAAU | -2.79 ± 0.28 | -1.77 ± 0.27 |
| UAUUAGCAAUAUUACGCAGG | -1.43 ± 0.14 | -0.962 ± 0.14 |
